Measured values reported in patent publication US20150079064.

How the values were obtained:
[1] = test system: TALEN TN3 (FokI ELD-S/KKR-S) (Artificial); test: cell_activity; conditions: pair with TN8; maximum in one DMD myoblast line (6.8% in the other); Surveyor; site preceded by 5'T
[2] = test system: TALEN TN8 (FokI ELD-S/KKR-S) (Artificial); test: cell_activity; conditions: pair with TN3; maximum in one DMD myoblast line (6.8% in the other); Surveyor; site preceded by 5'T

“AGCTCCTACTCAGACT (double strand) [TN3 half-site]” showed an activity (% alleles modified) [1] of 12.7.

In the case of “CCTTAGTAACCACAGGT (double strand) [TN8 half-site]”, the activity (% alleles modified) [2] is reported as 12.7.
